This note sets out measurements from a protein production outcome set (Wang et al. 2014).

A short description of this data set: label from the status in PepcDB records.
As for “MGNLKLALIIKSPRDDVEFLLEKQKQPAKFGDEAYDSFVDSDLWDLPSTDLQALEDGVRSGFSISILDSCSEEVDLMNFDFESTLILLLENLGIDISDVGEWRFVRSVEEPEFGPDSCVRTCFISGKLLNTDQSLQDNCKWMSMESCFDSLIDVKLGSDRVGPLVLLGLGDGSRQSMKHKLSSSLAIQEYPPGVMIVPMHSKTLKPFRTTNLVVFAPENGLGDHQGADFVAHGDALIVDPGCLSKLHVELKKIVDALPRKLIVFVTHHHRDHIDGLSAIQESNPDAILVAHAKTRHRIGGWSGNYTPVSGGENIYVNGQKLTVIFAPGHTDGHMSLLHTSTQSLIVGDHCVGQGSAFLDIRAGGNMTDYFQSTYKFLELSPNVVIPMHGRVNLWPKHMLCGYLKNRRSREKSILKATVDGAQTLYDIVAKVYSSVDRKFWWAASSNVRLHIEKLAVENKLPEGFSIQKFKASCGLRFAIRCTVGYIISKIPFKINKPGFIMSVMAAGAGYFLLYTSKKKNQIES”, the protein production result was “failed”.

“MGNLPALSWGPAGPLARTCGTSYGASDAQDLRRHAKIGSVELTLLGTGAPAGLPRPDCPCAACATALGEAARAATALLVDGTVLLDLTPGAAFAAARAGRSLGGVRQVLLSHPHNGPAVEVPAGLPQPARVPDGRELALLTGHRVRAMPMDAPGTGYAVTGPDGQRLLYLPPGGAPAGLDETVQPYDMVAADVVGRPDALARLRAVGALGPTTDVIAVHLDHDVPPGVELRRRLAAAGARAVPDGTTLTVGVYEDVPDVPRRTLVLGGARSGKSVEAERRLESFPDVLYVATGGSRGGDTEWAERVSVHRERRPGSWRTVETCDLVPLLKEDGPPLLIDCLSLWLTDAMDSVNAWDDDEWAGGGERALRGRVEELTAAVRETGRTVVAVSNEVGSGIVPATASGRRYRDELGRLNAAFAAECEHLLLVVAGQAMVLRGG”: the protein production result is on record as “failed”.

Regarding “MGNLPPHYGGSVNLLIAALGVLGVASSGPLIAGTLGATSVTALAIAFWRNAIGAVVMAGPVVIREPKAFGRITRREFGWSAVAAVALAFHFACFITALQLTSVAAATALVCLQSGWIAVFQLFRGTRHRWPVLVGLGIAFGGVVAITGFDMGSSPEALLGDLLALAGGALAGLYTLAGGKARQSMGTGTYTTLCYGMCAAIVAVMALFSGQPLAGFDAGGWLGIIAITVCAQLVGHTAFNHLLATMSPLLVSMIILLEIPGAAILAAIFLNETLPAGTYAGLALILVGLAVVVSGQRRGRPVADRREAELGAD”, the protein production entry is “failed”.

As to “MGNLSLGELELTVLYDEERYDIVEQTETVQVDLEGPRGVLTVFRFARPSYEVFVDLTEAGEGSHTVDVEHRGFPGDLAVTVEPRLEHHHHHH”, the protein production entry was “failed”.

As to “MGNQFSINRNRPANAGEAHASSTEAKPAPDAASPSRQVRVATAPSILEGLRKLRLPFNFGARVPPLPEETWAEIARRVDTKTLHRMRAVSKTLKAAADTEIRQLTVNTVEALQAAKRYACLETLKMDGYFGDADLEGLPASLRELDLFSTRYVSAKGLAHLSKLPLVRLKVRANGIHAEAARALAASTTLTALDIRGNGIGDAGAQALAANTSITSLDASFNDIGVAGARALAANTTLTSLDLGFNAIGDEGLQALATNTSLTSLTVGSCEIGDAGAAALANNTALTSVDLTCNHIGEEGAEGLAANTVLTSLDLTRNSISDRGAAALAGNTTLTSLCVNFNDIYGRGARWLAENTTLTTLDISYNPIGDWGALGLADNMTLRSLSVVAGRIGVEGARALAGNTTLTTLDISVNAIGNEGAQALAANATLTTLSLRSCELRAAAAEAFKANTTLASLDIGENRIEAAGAQALADNTALTTLRVTGNQIGMAGAQALAANRSLTKLNISQNDIRSAGAQALAANTSLTSLDVSSASIGAAGAQALAANTSITWLNINDNHIGDAGAQALAAHPALTSLYACDNFIGTAGVQALAANTRLTSLSIWGNRIGDAGVKALAANTTLTKLTIGKRVDKQLGEQIGDLAWQELMASVDRSGMTFHSL”, the protein production entry is recorded as “failed”.

As for “MGNTDKLMNQIFDLKFTSKSLQRQSRKCEKEEKAEKLKVKKAIEKGNMDGARIYAENAIRKRSEQMNYLRLASRLDAVVARLDTQAKMTTITKSMTNIVKSLESSLATGNLQKMSETMDSFEKQFVNMEVQAEFMENAMAGSTSLSTPEGEVNSLMQQVADDYGLEVSVGLPQPAGHAIPTKTEEKVDEDDLSRRLAELKARG”, the protein production entry was “failed”.

For “MGNYMTYIVGLTGGIGSGKTTIANLFTDLGVPLVDADVVAREVVAKDSPLLSKIVEHFGAQILTEQGELNRAALRERVFNHDEDKLWLNNLLHPAIRERMKQKLAEQTAPYTLFVVPLLIENKLTALCDRILVVDVSPQTQLARSAQRDNNNFEQIQRIMNSQVSQQERLKWADDVINNDAELAQNLPHLQQKVLELHQFYLQQAENKNA”, the protein production result was “not failed”.

“MGPTLGPAPLRGKSIPMNRTGRALTLGCLLLLQPLLAHAQAGGNSLLIPALGRCTLDPQAQDQAEALTACQKAADEGDAEAQYELGEFYYEGKGAPQDFNQALSYFEKASLQGHAQAQFKLGTMFFHGEGVPANNVQAYIVLKMAAVNGAEDALDTADEVAEHMQRDELEVATQVLGQIFRKYLMELQSADGRSPFSPLP”: the protein production entry is listed as “failed”.

In the case of “MGQAFAALSVWQVMGYGLVFFGGIYLLFGAATWLLTRRVLPALGVGRPLDPRPLGPGQWRREFLQSGLSVLIFGLGMVFPWGLVQLGWARLDDDAGPWRIVAEILVLVIWNDVHFWINHRLLHTRLLRRFHLPHHRSVVTTPFSTYSFHPIEALMLGNVILLPMVVHDFSFWSLLSVPLFSLFFNCVGHANYDFFPGVSYAHWFAASRRHHLHHACYQGNFGFQFTFMDRLFGTRLGADAAQGQLAAYRKRGAVGSAR”, the protein production result is “failed”.

“MGQALGCIQVDQSNVAIKETFGKFDEVLEPGCHCLPWCLGSQVAGHLSLRVQQLDVRCETKTKDNVFVTVVASIQYRALAESAQDAFYKLSNTRNQIQAYVFDVIRASVPKLDLDSTFEQKNDIAKTVETELEKAMSHYGYEIVQTLIVDIEPDVHVKRAMNEINAASRMREAASEKAEAEKILQIKRAEGEAESKYLSGMGIARQRQAIVDGLRNSVLAFSESVPGTSSKDVMDMVLVTQYFDTLKEIGASSKSNSVFIPHGPGAVRDIASQIRDGLLQGNSAAE”: the protein production entry is on record as “failed”.

Turning to “MGQIGVEITGVITDISEIKTFKRRDGSLGKYKRITIADKSGTIRMTLWDDLAELDVKVGDVIKIERARARKWRNNLELSSTSETKIKKLENYEGELPLEHHHHHH”, the protein production entry is “not failed”.

In the case of “MGQKIHAFMFPWFAFGHMTPYLHLGNKLAEKGHRVTFLLPKKAQKQLEHQNLFPHGIVFHPLVIPHVDGLPAGAETASDIPISLVKFLSIAMDLTRDQIEAAIGALRPDLILFDLAHWVPEMAKALKVKSMLYNVMSATSIAHDLVPGGELGVAPPGYPSSKALYREHDAHALLTFSGFYKRFYHRFTTGLMNCDFISIRTCEEIEGKFCDYIESQYKKKVLLTGPMLPEPDKSKPLEDQWSHWLSGFGQGSVVFCALGSQTILEKNQFQELCLGIELTGLPFLVAVKPPKGANTIHEALPEGFEERVKGRGIVWGEWVQQPSWQPLILAHPSVGCFVSHCGFGSMWESLMSDCQIVFIPVLNDQVLTTRVMTEELEVSVEVQREETGWFSKENLSGAIMSLMDQDSEIGNQVRRNHSKLKETLASPGLLTGYTDKFVDTLENLVNEQGYIS”, the protein production result is listed as “failed”.

Regarding “MGRAFEYRRAAKEKRWDKMSKVFPKLAKAITLAAKDGGSEPDTNAKLRTAILNAKAQNMPKDNIDAAIKRASSKEGNLSEITYEGKANFGVLIIMECMTDNPTRTIANLKSYFNKTQGASIVPNGSLEFMFNRKSVFECLKNEVENLKLSLEDLEFALIDYGLEELEEVEDKIIIRGDYNSFKLLNEGFESLKLPILKASLQRIATTPIELNDEQMELTEKLLDRIEDDDDVVALYTNIE”, the protein production result is reported as “failed”.

On to “MGRDYQSEALAEQHLREAHLLAPDHAAVLIGLYRFYFYKGRLGEALEVAQACLCKAARDNGLASDWRKVRRGDAEFSSYSAVLPRFYLFALKAYAYLQMRLGQLDEGHAAVEKLLELDPTDKVGAAVLLDVWRRIGLEHHHHHH”, for which the protein production result is listed as “failed”.

With “MGREFIPLFEDWAATYDQTVQGLDIQYKEAFRGYDHILDAIVRKSGTHVLEFGPGTGNLTAKLLDAGKTVFGIEPSPAMRKLASDKLSGRTEIVDGDFLTFPEPPFQADTIVSSYAFHHLTDEEKRAAIKQYGKYLHLHDKIVFADTVFENAQAYQQAIDKARSQGFYQLANDLETEHYPTLDALKEMFTAEGFAVRFTQQNDFVWIMEAIKRLEHHHHHH”, the protein production result was “failed”.

With “MGRISSGGMMFKAITTVAALVIATSAMAQDDLTISSLAKGETTKAAFNQMVQGHKLPAWVMKGGTYTPAQTVTLGDETYQVMSACKPHDCGSQRIAVMWSEKSNQMTGLFSTIDEKTSQEKLTWLNVNDALSIDGKTVLFAALTGSLENHPDGFNFK”, the protein production entry is “not failed”.

“MGRKDSLDLEEEAASGASSALEAGGSSGLEDVLPLLQQADELHRGDEQGKREGFQLLLNNKLVYGSRQDFLWRLARAYSDMCELTEEVSEKKSYALDGKEEAEAALEKGDESADCHLWYAVLCGQLAEHESIQRRIQSGFSFKEHVDKAIALQPENPMAHFLLGRWCYQVSHLSWLEKKTATALLESPLSATVEDALQSFLKAEELQPGFSKAGRVYISKCYRELGKNSEARWWMKLALELPDVTK”: the protein production entry is recorded as “failed”.

“MGRKQLNHIKCRENCSLVAKAGFRHRRVIIQGIQSAMVQDSDEILFVEEEDPVAGSLPSDVSPWKVLVADDDPEVFTVTRLVLSGFVFAGRGVSLLYAGSAAEATEILRQQSDIAVALLDVVMETEDAGLKLVKVIRDDLGNSHLRIVLRTGQPGQAPEHDVVMRYDINDYRSKTELTDTKLITTLVSSLRSYQQIEALERSRAELREARDTLEIRVAERTRDLRESEARLRSILDASVFPILVLSEEGDRVRFLNDHAGEALGWALLENTTSTLPDLWENPVDGARLLARTVQRGRVLDCEFRLRGAGGEPFWALVSTIAMSYDGQPAVLLSFNDITVHKQREEAWQRLALTDPLTGLGNRRLLFDRGILEVARARRGCWPLSGLMIDLDHFKRINDTQGHAAGDAILRTLADTLRESLREIDVIARVGGEEFAILLPDTSLTAAHEVGERLRLSCQIPQPVGGPVTISVGISTLHPEDRGLGDMLSRADDALYRAKRNGRDRVEIADDSEDNQDVSP”: the protein production result is listed as “failed”.

As to “MGRKRGNAIMEKTKIDIISGFLGAGKTTLIKKLLKDAFQGEQVVLIENEFGEIGIDGGFLKEAGIQIREMNSGCICCSLVGDFGASLKEVISKYHPDRILIEPSGVGKLSDVIKAVQGVEEETGLVLNSYTTVVDAKKCKMYMRNFGEFFNNQVEYAGAIIMSRTDIVDEAKAQASLELLREINSKAAIITTPIEKLEGKKLLEVMEHPVSLADELMEEEEVCPECGHVHEHGEHHHHDHDEECGCGHDHDHEEHEHHHHDHDEECGCGHDHAHEEHEHHHHDHDHECGCGHDHHDHHHHHADEVFTSWGRETIKKYTKENLEKMLEALSASDEYGIILRAKGMLPAEDGTWIYFDMVPEETEIREGAPEYTGRLCVIGSKLNEDKLAELFGL”, the protein production entry is “failed”.

As to “MGRKSNRAKEKKQRRLEERAAMDAVCAKVDAANKLEDPLSAMPVFKKYDRNGLNLQIECKRVTALSPDTVEWAYELTRANMQTLYEQSEWGWKEREKREEMKDERAWYLLARDADSTPLAFSHFRFDVECGDEVLYCYEVQLESKVRRKGLGKFLIQILQLIANSTQMKKVMLTVFKHNHGAYQFFREALQFEIDETSPSMSGCCGEDCSYEILSRRTKYGEVSGHAHGGHCGGCCH”, the protein production entry is “not failed”.

For “MGRNFLAILYFCFLFLGFLSCSNVKSMSLMAIGNYEYVRGNYQNAISNYYNLVEDEKYSAWGYYNLGVVYYSLGEYESSLRIFSYAKKTNDIFLNFNVNYNEGVIYYNQGLYHKAEVAFKEALKINPGSYNAKYNLELAIIKKRAVRDSLNSLSVEKGKNFVESNENFLRYIENLERVVWLRKIDENLAVPKEDW”, the protein production entry is “failed”.
